Results published in the Human Domainome abundance scans (Beltran et al. 2025).

B1: Nanos homolog 2, residues 63 to 115; numbered along this chain, P60321 (parent)
chain: CNFCKHNGESRHVYSSHQLKTPDGVVVCPILRHYVCPVCGATGDQAHTLKYCP
B2: Transcription elongation regulator 1-like protein, residues 448 to 504; numbered along this chain, Q5VWI1 (parent)
chain: LPLEERVTHFRDMLLERGVSAFSTWEKELHKIVFDPRYLLLNSEERKQIFEQFVKTR

Variants of: B1
Assay: abundance fitness (aPCA) (normalised: wild type 0, dead -1); higher = more abundant; growth selection in yeast, the domain comes from the species named
Details: Homo sapiens

Abundance fitness: each site, then its substitutions
C4: G -0.802, K -0.63, A -1.06, E -0.867, H -0.688, F -0.423
C1: S -0.337, L -0.745, W -0.941, G -0.554, F -0.347, Y -0.762
N2: F -0.324, G -0.484, A -0.823, W -0.759, R -0.768, T -0.408, H -0.647, M -0.861, D -0.359, Y -0.254, C -0.701, E -0.663, V -0.819, L -0.864, P -0.812, K -0.255, I -0.157
F3: M -1.06, L -0.576, Q -0.933, H -0.502, C -0.632, R -0.848, S -0.623, D -0.701, I -0.399, V -1.01, W -0.709, Y -0.117, N -0.877, K -1.44, T -0.988, G -1.2, P -1.3, E -1.22

Variants of: B2
Assay: as above
Details: Homo sapiens

Abundance fitness: each site, then its substitutions
L41: F -0.583, E -0.781, I -0.409, G -0.569, T -0.592, N -0.755, M -0.335, Q -0.473, V -0.226, C -0.734, K -1.11, R -0.616, Y -0.755, A -0.681, H -0.543, D -1.04, P -0.917
E45: P -0.791, W -0.483, V -0.858, Y -0.557, I -0.242, S -0.514, H -0.204, Q -0.004, R -0.434, M -0.107, T -0.515, L -0.067, G -0.427
E44: G -0.211, C -0.195, K 0.094, M 0.253, L -0.211, S -0.187, T -0.105, Q -0.143, I 0.179, V -0.159, H -0.415, F -0.21, P -0.606, Y -0.42, R -0.201, D 0.27, W -0.22
N42: C -0.437, K -0.109, D 0.035, S 0.034, Q 0.013, A -0.571, L -0.529, E -0.023, T -0.325, V -0.924, P -0.533, W -0.733, M -0.687
V54: K -0.396, G -0.632, F -0.082, C -0.303, S -0.222, P -0.811, A -0.451, E -0.821, T -0.093, R -0.348, I -0.199, W -0.624, M -0.505, D -0.32
Q48: G -0.237, V -0.065, S -0.139, W -0.05, M -0.002, R -0.165, A -0.036, C -0.227, D 0.297, N 0.751, L -0.082, E 0.006, K -0.31, I -0.213
P36: W -0.011, D -0.584, C -0.869, A -0.42, R -0.504, E -0.409, S -0.488, V -0.717, G -0.514, T -0.604, L -0.714, K 0.011
F50: K -0.835, T -0.924, D -0.624, G -0.759, Y 0.082, A -0.887, R -0.714, N 0.347, V -0.833, L -0.413, M -0.605, Q -0.866, W -0.17, E -0.69
S43: A 0.016, F -0.328, L -0.065, W -0.424, V -0.309, K -0.145, N -0.367, R -0.156, G 0.034, Q 0.07, T -0.197, M -0.134, E 0.341
F53: W -0.05, H -0.466, S -0.718, T -0.964, V -0.797, E -0.964, Y 0.15, C -0.828, G -0.368, R -0.837, L -0.747, A -0.949
E51: F -0.288, C -0.96, M -0.413, T -0.281, V -0.669, G -0.618, L -0.522, R -0.594, P -0.929, A 0.047, S -0.28, N -0.147, H -0.077, W -0.766, Q -0.255, I -0.632, K -0.278, Y -0.375, D -0.04
R37: W -0.733, Q -0.829, C -0.75, A -1.19, V -0.564, M -0.81, E -0.917, G -0.692, L -0.952, P -0.769
L40: E -0.466, K -0.966, P -0.688, S -0.619, V -0.877, D -1.05, A -0.504, M -0.295, W -0.639, G -0.349
Q52: L -0.435, C -0.402, T -0.33, E 0.114, S -0.151, H -0.426, Y -0.804, D 0.193, I -0.592, A -0.395, F -0.922, M -0.428, N -0.506, K -0.238, W -0.621, V -0.526, P -0.618
K55: G -0.278, M 0.06, W -0.543, L -0.124, H -0.218, A -0.266, S -0.04, N -0.267, Q -0.19, Y -0.667, T 0.212, P -1.19, D -0.514, C -0.382, E 0.209
T56: W -0.482, R -0.456, C -0.214, A 0.035, Q 0.022, G -0.303, K -0.078, E 0.336, S -0.017, D 0.635, L -0.311, P 0.109, I -0.034, N 0.05, V -0.477
K47: T -0.73, G -0.31, C -0.165, W -0.602, Q 0.159, I 0.151, S -0.627, P -0.783, H -0.109, A -0.381, D -0.747, V -0.501, E -0.58, F -0.04, L -0.286, R 0.025
Y38: L -0.5, F -0.129, W -1.06, V -0.767, Q -0.668, S -0.898, P -0.653, A -0.815, M -0.801, K -0.275, R -0.669, I -0.645, T -0.69, G -0.786
D35: V -0.836, T -0.892, R -0.436, W -0.861, P -0.722, S -0.944
I49: C -0.261, E -0.3, T 0.117, M -0.599, Y 0.129, G -0.643, A -0.517, D 0.515, L 0.035, Q 0.437, W -0.743, R -0.782, P -0.886, S -0.669, V 0.082
R46: C -0.657, V -0.436, K -0.429, Y -0.162, G -0.39, W -0.012, S -0.644, F -0.533, L -0.697, A -0.057, T -0.815
